Results as given in US20110091994A1, “Methods for Screening Compounds for Treating and/or Preventing an Hepatitis C Virus Infection” (priority 2008, published 2011).
Where two headings read alike, the source gives them in different places.

How the values were obtained:
HCV proteins = biological target: T1, HCV proteins (Hepatitis C virus genotype 1b, UniProt Q9WMX2); assay: Validation by Y2H pairwise matrices; format: binding;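 note: yeast two-hybrid pairwise tests of interactions first found in Y2H screens of HCV bait proteins against human cDNA libraries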
T1 construct: expressed in transfected cells

[1] = biological target: T2, HCV ORFs (Gal4-DB fusions) (Hepatitis C virus genotype 1b, UniProt Q9WMX2); format: binding, HCV genotype 1b, isolate con1; conditions: human protein as prey
T2 construct: expressed in transfected cells; host or cells: Saccharomyces cerevisiae MAV203 (IMAP1) / AH109 (IMAP2)

[2] = test system: HCV ORFs (Gal4-DB fusions); format: binding, HCV genotype 1b, isolate con1; conditions: human protein listed by gene symbol; the value names the HCV protein it interacts with
[3] = validation of interaction with HCV protein NS3
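Throughout, for IMAP Y2H IMAP1 (number of IST): yeast two-hybrid screens using HCV genotype 1b proteins fused to Gal4-DB as baits against prey cDNA libraries from human spleen and foetal brain, IMAP1 via transformation and IMAP2 via mating.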
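Throughout, for IMAP Y2H IMAP2 (number of IST): yeast two-hybrid screens using HCV genotype 1b proteins fused to Gal4-DB as baits against prey cDNA libraries from human spleen and foetal brain, IMAP1 via transformation and IMAP2 via mating.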
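Throughout, for Interaction with viral protein: yeast two-hybrid screens using HCV genotype 1b proteins fused to Gal4-DB as baits against prey cDNA libraries from human spleen and foetal brain, IMAP1 via transformation and IMAP2 via mating.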

B1: ZNF281 (protein, UniProt Q9Y2X9 1-895, looked up)
Zinc finger protein 281: MKIGSGFLSGGGGTGSSGGSGSGGGGSGGGGGGGSSGRRAEMEPTFPQGMVMFNHRLPPVTSFTRPAGSAAPPPQCVLSSSTSAAPAAEPPPPPAPDMTFKKEPAASAAAFPSQRTSWGFLQSLVSIKQEKPADPEEQQSHHHHHHHHYGGLFAGAEERSPGLGGGEGGSHGVIQDLSILHQHVQQQPAQHHRDVLLSSSSRTDDHHGTEEPKQDTNVKKAKRPKPESQGIKAKRKPSASSKPSLVGDGEGAILSPSQKPHICDHCSAAFRSSYHLRRHVLIHTGERPFQCSQCSMGFIQKYLLQRHEKIHSREKPFGCDQCSMKFIQKYHMERHKRTHSGEKPYKCDTCQQYFSRTDRLLKHRRTCGEVIVKGATSAEPGSSNHTNMGNLAVLSQGNTSSSRRKTKSKSIAIENKEQKTGKTNESQISNNINMQSYSVEMPTVSSSGGIIGTGIDELQKRVPKLIFKKGSRKNTDKNYLNFVSPLPDIVGQKSLSGKPSGSLGIVSNNSVETIGLLQSTSGKQGQISSNYDDAMQFSKKRRYLPTASSNSAFSINVGHMVSQQSVIQSAGVSVLDNEAPLSLIDSSALNAEIKSCHDKSGIPDEVLQSILDQYSNKSESQKEDPFNIAEPRVDLHTSGEHSELVQEENLSPGTQTPSNDKASMLQEYSKYLQQAFEKSTNASFTLGHGFQFVSLSSPLHNHTLFPEKQIYTTSPLECGFGQSVTSVLPSSLPKPPFGMLFGSQPGLYLSALDATHQQLTPSQELDDLIDSQKNLETSSAFQSSSQKLTSQKEQKNLESSTGFQIPSQELASQIDPQKDIEPRTTYQIENFAQAFGSQFKSGSRVPMTFITNSNGEVDHRVRTSVSDFSGYTNMMSDVSEPCSTRVKTPTSQSYR
- Y2H matrices (HCV proteins; [3]): +
- IMAP Y2H IMAP1 (number of IST) ([1]; HCV protein NS3 as bait): 1
- Interaction with viral protein [2]: NS3

B2: POU3F2 (protein, UniProt P20265 1-443, looked up)
POU domain, class 3, …: MATAASNHYSLLTSSASIVHAEPPGGMQQGAGGYREAQSLVQGDYGALQSNGHPLSHAHQWITALSHGGGGGGGGGGGGGGGGGGGGGDGSPWSTSPLGQPDIKPSVVVQQGGRGDELHGPGALQQQHQQQQQQQQQQQQQQQQQQQQQRPPHLVHHAANHHPGPGAWRSAAAAAHLPPSMGASNGGLLYSQPSFTVNGMLGAGGQPAGLHHHGLRDAHDEPHHADHHPHPHSHPHQQPPPPPPPQGPPGHPGAHHDPHSDEDTPTSDDLEQFAKQFKQRRIKLGFTQADVGLALGTLYGNVFSQTTICRFEALQLSFKNMCKLKPLLNKWLEEADSSSGSPTSIDKIAAQGRKRKKRTSIEVSVKGALESHFLKCPKPSAQEITSLADSLQLEKEVVRVWFCNRRQKEKRMTPPGGTLPGAEDVYGGSRDTPPHHGVQTPVQ
- Y2H matrices (HCV proteins; validation of interaction with HCV protein NS2): +
- IMAP Y2H IMAP1 (number of IST) ([1]; HCV protein NS2 as bait): 1
- Interaction with viral protein [2]: NS2

B3: ZCCHC7 (protein, UniProt Q8N3Z6 1-543, looked up)
Zinc finger CCHC …: MMFGGYETIEAYEDDLYRDESSSELSVDSEVEFQLYSQIHYAQDLDDVIREEEHEEKNSGNSESSSSKPNQKKLIVLSDSEVIQLSDGSEVITLSDEDSIYRCKGKNVRVQAQENAHGLSSSLQSNELVDKKCKSDIEKPKSEERSGVIREVMIIEVSSSEEEESTISEGDNVESWMLLGCEVDDKDDDILLNLVGCENSVTEGEDGINWSISDKDIEAQIANNRTPGRWTQRYYSANKNIICRNCDKRGHLSKNCPLPRKVRRCFLCSRRGHLLYSCPAPLCEYCPVPKMLDHSCLFRHSWDKQCDRCHMLGHYTDACTEIWRQYHLTTKPGPPKKPKTPSRPSALAYCYHCAQKGHYGHECPEREVYDPSPVSPFICYYDDKYEIQEREKRLKQKIKVLKKNGVIPEPSKLPYIKAANENPHHDIRKGRASWKSNRWPQENKETQKEMKNKNRNWEKHRKADRHREVDEDFPRGPKTYSSPGSFKTQKPSKPFHRSSHYHTSREDKSPKEGKRGKQKKKERCWEDDDNDNLFLIKQRKKKS
- Y2H matrices (HCV proteins; [3]): +
- IMAP Y2H IMAP1 (number of IST) ([1]; HCV protein NS3 as bait): 2
- IMAP Y2H IMAP2 (number of IST) ([1]; HCV protein NS3 as bait): 1
- Interaction with viral protein [2]: NS3

B4: ELAC2 (protein, UniProt Q9BQ52 17-826, looked up)
Zinc phosphodiesterase ELAC …: SQGRTISQAPARRERPRKDPLRHLRTREKRGPSGCSGGPNTVYLQVVAAGSRDSGAALYVFSEFNRYLFNCGEGVQRLMQEHKLKVARLDNIFLTRMHWSNVGGLSGMILTLKETGLPKCVLSGPPQLEKYLEAIKIFSGPLKGIELAVRPHSAPEYEDETMTVYQIPIHSEQRRGKHQPWQSPERPLSRLSPERSSDSESNENEPHLPHGVSQRRGVRDSSLVVAFICKLHLKRGNFLVLKAKEMGLPVGTAAIAPIIAAVKDGKSITHEGREILAEELCTPPDPGAAFVVVECPDESFIQPICENATFQRYQGKADAPVALVVHMAPASVLVDSRYQQWMERFGPDTQHLVLNENCASVHNLRSHKIQTQLNLIHPDIFPLLTSFRCKKEGPTLSVPMVQGECLLKYQLRPRREWQRDAIITCNPEEFIVEALQLPNFQQSVQEYRRSAQDGPAPAEKRSQYPEIIFLGTGSAIPMKIRNVSATLVNISPDTSLLLDCGEGTFGQLCRHYGDQVDRVLGTLAAVFVSHLHADHHTGLPSILLQRERALASLGKPLHPLLVVAPNQLKAWLQQYHNQCQEVLHHISMIPAKCLQEGAEISSPAVERLISSLLRTCDLEEFQTCLVRHCKHAFGCALVHTSGWKVVYSGDTMPCEALVRMGKDATLLIHEATLEDGLEEEAVEKTHSTTSQAISVGMRMNAEFIMLNHFSQRYAKVPLFSPNFSEKVGVAFDHMKVCFGDFPTMPKLIPPLKALFAGDIEEMEERREKRELRQVRAALLSRELAGGLEDGEPQQKRAHTEEPQAKKVRAQ
- Y2H matrices (HCV proteins; validation of interaction with HCV protein NS4A): +
- IMAP Y2H IMAP1 (number of IST) ([1]; HCV protein NS4A as bait): 1
- Interaction with viral protein [2]: NS4A

B5: ZHX3 (protein, UniProt Q9H4I2 1-956, looked up)
Zinc fingers and homeoboxes …: MASKRKSTTPCMIPVKTVVLQDASMEAQPAETLPEGPQQDLPPEASAASSEAAQNPSSTDGSTLANGHRSTLDGYLYSCKYCDFRSHDMTQFVGHMNSEHTDFNKDPTFVCSGCSFLAKTPEGLSLHNATCHSGEASFVWNVAKPDNHVVVEQSIPESTSTPDLAGEPSAEGADGQAEIIITKTPIMKIMKGKAEAKKIHTLKENVPSQPVGEALPKLSTGEMEVREGDHSFINGAVPVSQASASSAKNPHAANGPLIGTVPVLPAGIAQFLSLQQQPPVHAQHHVHQPLPTAKALPKVMIPLSSIPTYNAAMDSNSFLKNSFHKFPYPTKAELCYLTVVTKYPEEQLKIWFTAQRLKQGISWSPEEIEDARKKMFNTVIQSVPQPTITVLNTPLVASAGNVQHLIQAALPGHVVGQPEGTGGGLLVTQPLMANGLQATSSPLPLTVTSVPKQPGVAPINTVCSNTTSAVKVVNAAQSLLTACPSITSQAFLDASIYKNKKSHEQLSALKGSFCRNQFPGQSEVEHLTKVTGLSTREVRKWFSDRRYHCRNLKGSRAMIPGDHSSIIIDSVPEVSFSPSSKVPEVTCIPTTATLATHPSAKRQSWHQTPDFTPTKYKERAPEQLRALESSFAQNPLPLDEELDRLRSETKMTRREIDSWFSERRKKVNAEETKKAEENASQEEEEAAEDEGGEEDLASELRVSGENGSLEMPSSHILAERKVSPIKINLKNLRVTEANGRNEIPGLGACDPEDDESNKLAEQLPGKVSCKKTAQQRHLLRQLFVQTQWPSNQDYDSIMAQTGLPRPEVVRWFGDSRYALKNGQLKWYEDYKRGNFPPGLLVIAPGNRELLQDYYMTHKMLYEEDLQNLCDKTQMSSQQVKQWFAEKMGEETRAVADTGSEDQGPGTGELTAVHKGMGDTYSEVSENSESWEPRVPEASSEPFDTSSPQAGRQLETD
- Y2H matrices (HCV proteins; [3]): +
- IMAP Y2H IMAP1 (number of IST) ([1]; HCV protein NS3 as bait): 4
- Interaction with viral protein [2]: NS3

B6: ZZZ3 (protein, UniProt Q8IYH5 1-903, looked up)
ZZ-type zinc …: MAASRSTRVTRSTVGLNGLDESFCGRTLRNRSIAHPEEISSNSQVRSRSPKKRPEPVPIQKGNNNGRTTDLKQQSTRESWVSPRKRGLSSSEKDNIERQAIENCERRQTEPVSPVLKRIKRCLRSEAPNSSEEDSPIKSDKESVEQRSTVVDNDADFQGTKRACRCLILDDCEKREIKKVNVSEEGPLNSAVVEEITGYLAVNGVDDSDSAVINCDDCQPDGNTKQNSIGSYVLQEKSVAENGDTDTQTSMFLDSRKEDSYIDHKVPCTDSQVQVKLEDHKIVTACLPVEHVNQLTTEPATGPFSETQSSLRDSEEEVDVVGDSSASKEQCKENTNNELDTSLESMPASGEPEPSPVLDCVSAQMMSLSEPQEHRYTLRTSPRRAAPTRGSPTKNSSPYRENGQFEENNLSPNETNATVSDNVSQSPTNPGEISQNEKGICCDSQNNGSEGVSKPPSEARLNIGHLPSAKESASQHITEEEDDDPDVYYFESDHVALKHNKDYQRLLQTIAVLEAQRSQAVQDLESLGRHQREALKNPIGFVEKLQKKADIGLPYPQRVVQLPEIVWDQYTHSLGNFEREFKNRKRHTRRVKLVFDKVGLPARPKSPLDPKKDGESLSYSMLPLSDGPEGSSSRPQMIRGRLCDDTKPETFNQLWTVEEQKKLEQLLIKYPPEEVESRRWQKIADELGNRTAKQVASRVQKYFIKLTKAGIPVPGRTPNLYIYSKKSSTSRRQHPLNKHLFKPSTFMTSHEPPVYMDEDDDRSCFHSHMNTAVEDASDDESIPIMYRNLPEYKELLQFKKLKKQKLQQMQAESGFVQHVGFKCDNCGIEPIQGVRWHCQDCPPEMSLDFCDSCSDCLHETDIHKEDHQLEPIYRSETFLDRDYCVSQGTSYNYLDPNYFPANR
- Y2H matrices (HCV proteins; [3]): +
- IMAP Y2H IMAP1 (number of IST) ([1]; HCV protein NS3 as bait): 1
- Interaction with viral protein [2]: NS3

B7: ZNF410 (protein, UniProt Q86VK4 1-478, looked up)
Zinc finger protein 410: MLSDELESKPELLVQFVQNTSIPLGQGLVESEAKDITCLSLLPVTEASECSRLMLPDDTTNHSNSSKEVPSSAVLRSLRVNVGPDGEETRAQTVQKSPEFLSTSESSSLLQDLQPSDSTSFILLNLTRAGLGSSAEHLVFVQDEAEDSGNDFLSSESTDSSIPWFLRVQELAHDSLIAATRAQLAKNAKTSSNGENVHLGSGDGQSKDSGPLPQVEKKLKCTVEGCDRTFVWPAHFKYHLKTHRNDRSFICPAEGCGKSFYVLQRLKVHMRTHNGEKPFMCHESGCGKQFTTAGNLKNHRRIHTGEKPFLCEAQGCGRSFAEYSSLRKHLVVHSGEKPHQCQVCGKTFSQSGSRNVHMRKHHLQLGAAGSQEQEQTAEPLMGSSLLEEASVPSKNLVSMNSQPSLGGESLNLPNTNSILGVDDEVLAEGSPRSLSSVPDVTHHLVTMQSGRQSYEVSVLTAVNPQELLNQGDLTERRT
- Y2H matrices (HCV proteins; [3]): +
- IMAP Y2H IMAP1 (number of IST) ([1]; HCV protein NS3 as bait): 1
- Interaction with viral protein [2]: NS3
